This passage reports binding result and current inhibition, whole cell patch clamp on transfected HEK293 cells, 300 nM antibody results from patent publication US20090028851A1 (MAXPLANCK GESELLSCHAFT ZUR F RDERUNG DER WISSENSCH, published 2009).

For test [1], the target named is T1, SPOT peptide 21, YQFNGSGSGKWEG
T1 construct: also called spot 21
T1 peptide: YQFNGSGSGKWEG
The experiment in a line: SPOT peptide membrane, ECL.

Test [2] deals with T2, SPOT peptide 23, GSGSGKWEGGPSK
T2 construct: also called spot 23
T2 peptide: GSGSGKWEGGPSK
The experiment in a line: SPOT peptide membrane, ECL.

Test [3] concerns the target T3, SPOT peptide 24, GSGKWEGGPSKNS
T3 construct: also called spot 24
T3 peptide: GSGKWEGGPSKNS
The experiment in a line: SPOT peptide membrane, ECL.

In test [4] the target is T4, SPOT peptide 22, FNGSGSGKWEGGP
T4 construct: also called spot 22
T4 peptide: FNGSGSGKWEGGP
The experiment in a line: SPOT peptide membrane, ECL.

In test [5] the target is Eag1 ion channel expressed in cells (Eag1 overexpressing CHO K1 cells; Eag1-expressing oocytes; transfected HEK293 cells) (UniProt O95259). The test can be described thus: cell-based or functional assay.
Test [6] deals with T5, SPOT peptide 7, DYEIFDEDTKTIR (also: covalently bound to a cellulose SPOT membrane).
T5 construct: also called spot 7
T5 peptide: DYEIFDEDTKTIR
The test can be described thus: SPOT peptide membrane, ECL.

Test [7] concerns the target T6, SPOT peptide 5, SGMGDYEIFDEDT (also: covalently bound to a cellulose SPOT membrane).
T6 construct: also called spot 5
T6 peptide: SGMGDYEIFDEDT
The experiment in a line: SPOT peptide membrane, ECL.

Test [8] deals with T7, SPOT peptide 6, MGDYEIFDEDTKT (also: covalently bound to a cellulose SPOT membrane).
T7 construct: also called spot 6
T7 peptide: MGDYEIFDEDTKT
The test can be described thus: SPOT peptide membrane, ECL.

The target in test [9] is T8, SPOT peptide 4, HSSGMGDYEIFDE (also: covalently bound to cellulose SPOT membrane).
T8 construct: also called spot 4
T8 peptide: HSSGMGDYEIFDE
The experiment in a line: SPOT peptide membrane, ECL.

The target in test [10] is T9, SPOT peptide 3, HHHSSGMGDYEIF (also: covalently bound to cellulose SPOT membrane).
T9 construct: holds residues of the immunogen's His tag; also called spot 3
T9 peptide: HHHSSGMGDYEIF
The experiment in a line: SPOT peptide membrane, ECL.

Test [11] deals with T10, SPOT peptide 8, EIFDEDTKTIRNN
T10 construct: also called spot 8
T10 peptide: EIFDEDTKTIRNN
The test can be described thus: SPOT peptide membrane, ECL.

For test [12], the target named is T11, rat Eag1 (rat brain sections, hippocampus and cerebellum) (rat, UniProt Q63472 1-962).
T11 construct: whole, on cells; Native protein in fixed tissue sections (immunohistochemistry)
T11 sequence (looked up): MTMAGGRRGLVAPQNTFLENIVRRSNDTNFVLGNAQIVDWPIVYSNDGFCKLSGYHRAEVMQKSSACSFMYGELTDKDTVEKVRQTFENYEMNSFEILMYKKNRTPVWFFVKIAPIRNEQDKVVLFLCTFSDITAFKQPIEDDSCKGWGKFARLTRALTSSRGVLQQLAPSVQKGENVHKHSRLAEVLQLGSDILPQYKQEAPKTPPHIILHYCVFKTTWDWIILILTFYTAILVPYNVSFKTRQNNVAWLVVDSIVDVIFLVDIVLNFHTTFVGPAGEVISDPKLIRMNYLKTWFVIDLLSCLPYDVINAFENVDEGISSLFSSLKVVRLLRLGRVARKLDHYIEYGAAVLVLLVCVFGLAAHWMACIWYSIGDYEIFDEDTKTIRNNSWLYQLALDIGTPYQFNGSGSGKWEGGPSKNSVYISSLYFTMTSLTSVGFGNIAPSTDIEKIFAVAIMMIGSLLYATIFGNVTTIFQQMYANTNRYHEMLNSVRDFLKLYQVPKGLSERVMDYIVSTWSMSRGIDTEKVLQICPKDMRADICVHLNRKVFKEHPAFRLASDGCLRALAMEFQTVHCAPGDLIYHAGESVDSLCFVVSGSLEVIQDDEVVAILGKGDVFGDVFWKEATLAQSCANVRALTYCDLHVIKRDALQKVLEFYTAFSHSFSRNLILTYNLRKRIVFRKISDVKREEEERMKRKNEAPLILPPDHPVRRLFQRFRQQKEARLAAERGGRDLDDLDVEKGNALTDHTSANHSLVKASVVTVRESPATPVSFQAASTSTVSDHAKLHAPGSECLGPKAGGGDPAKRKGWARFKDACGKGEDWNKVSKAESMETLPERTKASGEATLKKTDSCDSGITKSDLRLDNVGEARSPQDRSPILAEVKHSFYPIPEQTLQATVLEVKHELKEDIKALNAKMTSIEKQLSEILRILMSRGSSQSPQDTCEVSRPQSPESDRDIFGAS
The experiment in a line: immunohistochemistry on rat brain sections (hippocampus, cerebellum).

Where no end group is shown, it is not given here.

B1: mouse monoclonal anti-Eag1 antibody ImAb3 (antibody, mouse IgG2b, kappa, V domains shown)
VH: EVKLVESGGGLVQPGGSLRLSCATSGFTFTDYYMSWVRQPPGKALEWLGFIRNKATGYTTEYSASVKGRFTISRDNSQSILYLQMNTLRAEDSATYYCARDFGSRWYFDVWGAGTTVTVSS
VL: DIVMSQSPSSLAVSAGEKVTMSCKSSQSLLNSRTRKNYLAWYQQKPGQSPKLLIYWASTRESGVPDRFTGSGSGTDFTLTISSVQAEDLAVYYCKQSYDLRTFGGGTKLEIKR
notes: Murine IgG2b / kappa
On to B1, for which the binding result in test [1], in test [2], in [3] and in test [4] was “binds” in each case. This molecule also gave a current inhibition, whole cell patch clamp on transfected HEK293 cells, 300 nM antibody in test [5] of 35%.

B2: mouse monoclonal anti-Eag1 antibody ImAb4 (antibody, mouse IgG2b, kappa, V domains shown)
VH: DVQLQESGPGLVKPSQSLSLTCTVTGYSITSDYAWNWIRQFPGNKLEWMGYISYSGSTIYNPSLKSRISITRDTSKNQFFLQLNSVTTEDTATYYCARFGNYGNTLNYWGQGTSVTVSS
VL: DVVMTQTPLSLPVSLGDQASISCRSSQSLVHSNGNTYLHWYLQKPGQSPKLLIYKVSNRFSGVPDRFSGSGSGTDFTLKISRVEAEDLGVYFCSQSTHVPPTFGGGTKLEIKR
notes: Murine IgG2b / kappa
Turning to B2, the binding result in test [6], in test [7], in test [8], in test [9], in test [10] and in test [11] was “binds” in each case. Besides, the binding result in test [12] is recorded as “binds”.
